# Measured values from patent US20250163164A1 (LANOVA MEDICINES DEVELOPMENT, published 2025).
# “And” between values parts separate entries of the source, which are not always exact repeats. Equal entries are not always repeated. Where two headings read alike, the source gives them in different places.
# Experiments:
# [1] = target: T1, human interleukin 13 receptor subunit alpha 2 (IL-13RA2) (human, UniProt Q14627 27-380); test: FACS on A375 cells
# T1 construct: whole, on cells; also called IL-13Rα2; CD213A2
# T1 sequence (looked up): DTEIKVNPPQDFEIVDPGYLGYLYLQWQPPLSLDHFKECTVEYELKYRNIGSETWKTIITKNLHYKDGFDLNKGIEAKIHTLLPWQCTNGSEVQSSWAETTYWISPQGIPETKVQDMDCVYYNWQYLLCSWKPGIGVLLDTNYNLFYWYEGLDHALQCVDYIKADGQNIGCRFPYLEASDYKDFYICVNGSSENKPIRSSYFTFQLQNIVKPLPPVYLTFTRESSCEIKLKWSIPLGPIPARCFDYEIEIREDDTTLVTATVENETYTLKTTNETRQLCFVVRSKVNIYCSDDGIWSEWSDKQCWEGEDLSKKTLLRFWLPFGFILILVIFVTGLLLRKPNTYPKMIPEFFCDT
# Procedure: A375 cells that endogenously expressed IL-13RA2, were harvested from flasks. 100 μl of 1×10⁶ cells/ml of cells were incubated with primary chimeric antibodies in 3-fold serial dilutions starting from 300 nM to 0.002 nM for 30 minutes on ice. After being washed with 200 μl of FACS buffer twice, cells were incubated with secondary antibody for 30 minutes on ice. Cells were washed with 200 μl of FACS buffer twice and analyzed by FACS.
# As shown in FIG. 3 and Table 4, the chimeric antibodies bound to human IL-13RA2 at different EC50.
# [2] = target: T1, human interleukin 13 receptor subunit …; test: FACS on A375 cells; remark: listed apart in the source
# Procedure: A375 cells that endogenously expressed IL-13RA2, were harvested from flasks. 100 μl of 1×10⁶ cells/ml of cells were incubated with primary humanized antibodies in 4-fold serial dilutions starting from 200 nM to 0.003 nM for 30 minutes on ice. After being washed with 200 μl of FACS buffer twice, cells were incubated with secondary antibody for 30 minutes on ice. Cells were washed with 200 μl of FACS buffer twice and analyzed by FACS.
# [3] = target: T1, human interleukin 13 receptor subunit …; test: cell-based or functional assay
binder,measurement,setting,value
"xi72B4H4 hIgG1 (antibody, V domains shown) VH: QVQLQQPGAERVRPGASVKLSCKASGYTFTNYWMNWVKQRPEQGLEWIGRIDPYAGETHYNQKFKDKAILTVDKSSSTAYMQLRSLTSEDSAVYYCARGYGDSYGMDHWGQGTSVTVSS VL: not shown",EC50,[1],0.85 nM
same,Top (MFI),[1],16900 MFI
same,EC50,[2],0.36 nM and 0.581 nM
same,"internalization EC50 (pHAb dye), A375 cells",[3],1.06 nM
same,"internalization EC50 (pHAb dye), CHO-K1/H_IL-13RA2 cells",[3],2.92 nM
same,"internalization EC50 (pHAb dye), HEK-293/H IL-13RA2 cells",[3],2.18 nM
same,"internalization Top (MFI), A375 cells",[3],5260 MFI
same,"internalization Top (MFI), CHO-K1/H_IL-13RA2 cells",[3],18700 MFI
same,"internalization Top (MFI), HEK-293/H IL-13RA2 cells",[3],19500 MFI
